Legend:
[1] = test system: β-lactamase activity of S. aureus SHY97-4320; test: β-lactamase activity, nitrocefin assay, bovine LF/LFC; format: cell-based
Description: (§1) The effects of sub-MICs of LF (1 mg/ml), LFC (32 and 64 μg/ml) alone or in combination with ampicillin (4μg/ml) or penicillin G (8 μg/ml) were evaluated on the β-lactamase activity of S. aureus strains SHY97-4320 and PC-1. The chromogenic cephalosporin nitrocefin (Becton Dickinson, Microbiology, Cockeysville, Md.) was used in a quantitative spectrophotometric assay. Bacterial cells were first exposed during 4 and 22-h to drugs in broth. The number of bacteria (cfu/ml) were determined and cells aliquots were centrifuged at each point in time. The pellets were suspended in 10 mM HEPES buffer (pH 7.4) to an OD415 nm of 1 for PC-1 and 2 for SHY97-4320. Nitrocefin (100 μM) was added to 100 μl of cells in a final volume of 1 ml. Hydrolysis was measured at 486 nm on spectrophotometer. β-lactamase activity was expressed as ΔO.D.486 nm/min and corrected for bacterial OD.

[2] = test system: β-lactamase activity of S. aureus PC-1; test: as above; format: cell-based; conditions: LF 1 mg/ml (P<0.05); LFC 32 or 64 μg/ml (P<0.001)
Chain of β-lactamase activity of S. aureus PC-1 (P00807 25-281): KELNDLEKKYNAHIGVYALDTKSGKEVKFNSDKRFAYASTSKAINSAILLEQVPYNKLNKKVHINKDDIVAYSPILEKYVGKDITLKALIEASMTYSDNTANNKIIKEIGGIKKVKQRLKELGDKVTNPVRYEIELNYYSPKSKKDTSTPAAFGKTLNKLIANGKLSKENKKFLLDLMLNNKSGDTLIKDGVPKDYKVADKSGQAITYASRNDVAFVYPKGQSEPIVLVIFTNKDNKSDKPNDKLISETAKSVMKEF
Description: as §1

[3] = test system: β-lactamase (BlaZ) gene expression in S. aureus strain SHY97-4320; test: BlaZ gene expression, real-time quantitative RT-PCR, and total RNA; format: cell-based, Staphylococcus aureus
Description: Fresh MHB containing or not 8 μg/ml of penicillin G and/or 1 mg/ml of bovine LF (2×2 factorial design) was adjusted to an optical density at 540 nm of 0.04 with an overnight culture of S. aureus and then incubated at 37° C. with agitation (150 rpm). After 4 and 22-h of incubation, aliquots were removed to determine bacterial growth by viable count (colony forming unit per ml, cfu/ml), measuring the culture turbidity (OD540nm) with a spectrophotometer Philips PU and to measure β-lactamase activity in bacterial cells. Following culture under the same condition, bacterial cells were collected for RNA extraction.
Total bacterial RNA was prepared using the RNeasy minikit (Qiagen, Mississauga, ON, Canada). Washed bacteria were first treated with 50 μg/ml of lysostaphin (GramCracker, Ambion, Austin, Tex.) for 10 min at 37° C. and RNA was purified according to the manufacturer's protocol. Contaminating DNA was removed from total RNA by using 1 U of Rnase-free Dnase I (Gibco Life Technologies, Grand Island, N.Y.) in a 10 μl reaction mixture containing approximately 50 ng of total RNA per μl and 20mM Tris-HCl (pH 8.4), 2 mM MgCl2 and 50 mM KCl. The reaction mixture was incubated for 15 min at room temperature, and the Dnase I was inactivated by adding 1 μl of 25 mM EDTA to the mixture and incubating for 10 min at 65° C. before assessing quantity and purity. Amount of cellular RNA was then determined by measuring the OD260 nm and OD280 nm.
Real-Time fluorescence-based 5′ nuclease PCR which is a widely accepted method for measuring gene expression levels was used to quantify β-lactamase BlaZ RNA by RT-PCR on ABI Prism™ 7700 (TaqMan® ) sequence detector (PE Applied Biosystem, Foster City, Calif.). The forward primer, reverse.primer, and TaqMan probe for Real-Time RT-PCR amplification were designed with the PrimerExpress software (PE Applied Biosystem) to specifically amplify the. S. aureus BLAZ gene. Briefly, RNA (50 ng) was added to a 50 μl reaction mixture containing 25 μl of 2×RT-PCR One-Step Universal Master Mix, 1.25 μl of 40×MultiScribe and Rnase Inhibitor Mix, 4.5 μl of the forward primer (10 μM, 5′-[…]-3′, SEQ ID NO:3), 4.5 μl of the reverse primer (10 μM, 5′-[…]-3′, SEQ ID NO:4), and 1.25 μl of TaqMan probe (10 μM, 6FAM-[…]-TAMRA, SEQ ID NO:5). Reverse transcription with the recombinant Moloney Murine Leukemia Virus (M-MuLV) Reverse Transcriptase (0.25 U/μl) was conducted at 48° C. for 30 min. After initial activation of AmpliTaq Gold DNA polymerase (1.25 U/μl) at 95° C. for 10 min, 40 PCR cycles of 95° C. for 15 s and 60° C. for 1 min were performed. The cycle threshold value (CT), indicative of the quantity of target gene at which the fluorescence exceeds a pre-set threshold, was determined and compared to the CT of a standard curve containing known amounts of mRNA (1.1×10^2 to 1.1×10^9) from the BLAZ gene of S. aureus obtained by in vitro transcription. Statistical analysis were done on the LOG 10 of number of copies.

S. aureus SHY97-4320 = test: SDS-PAGE protein profile of whole cells; format: cell-based, Staphylococcus aureus
Description: Staphylococcus aureus SHY97-4320 cells growth in MHB containing test compounds were suspended in electrophoresis sample buffer containing 2% sodium dodecyl sulfate (SDS) and 5% 2-mercaptoethanol to a final concentration of 0.1 g per ml. The samples were heated to 100° C. for 5 min before being loaded for electrophoresis on a discontinuous 0.1% SDS-polyacrylamide gel (SDS PAGE) with 6% polyacrylamide stacking gel and 10 or 12% polyacrylamide running gel. Gels were run on a Mini-Protean® II apparatus (Bio Rad laboratories, Richmond, Calif.). Protein profiles were visualised by staining with coomassie brilliant blue R-250 or by silver staining.

S. aureus ATCC 25923 = test: Cell morphology by transmission electron microscopy; format: cell-based, Staphylococcus aureus; conditions: LF 9.1 μg/ml alone; 18-h
Description: Bacterial cells were grown overnight on MHA or MHB containing sub-MICs of penicillin G with or without LF or LFC. Microorganisms were prepared for transmission electron microscopy by fixation with glutaraldehyde followed by ferritin labelling. This method allows good- preservation of capsular material. Briefly, bacterial cells grown in the presence or absence of antibiotics were fixed in cacodylate buffer (0.1 M, pH 7.0) containing 5% (v/v) glutaraldehyde, for 2 h at 20° C. Fixed microorganims were suspended in cacodylate buffer and allowed to react with the polycationic ferritin (Sigma Chemicals, St-Louis, Mo.; final concentration 1.0 mg/ml) for 30 min at 20° C. The reaction was slowed down by 10-fold dilution with buffer, and the microorganisms were centrifuged and washed three times in cacodylate buffer. Bacterial cells were then immobilized in 4% (w/v) agar, washed 5 times in cacodylate buffer and post-fixed with 2% (w/v) osmium tetroxide for 2 h. Washings were repeated as above, and the samples dehydrated in a graded series of acetone washes. Samples were then washed twice in propylene oxide and embedded in Spurr low-viscosity resin. Thin sections were post-stained with uranyl acetate and lead citrate and examined with an electron microscope (Philips 201) at an accelerating voltage of 60 kV.

Chain of β-lactamase activity of S. aureus SHY97-4320 (P00807 25-281): as above

B1: LF: bovine lactoferrin, 80-kDa iron-binding glycoprotein found in milk (protein, UniProt P24627 20-708, looked up)
Lactotransferrin: APRKNVRWCTISQPEWFKCRRWQWRMKKLGAPSITCVRRAFALECIRAIAEKKADAVTLDGGMVFEAGRDPYKLRPVAAEIYGTKESPQTHYYAVAVVKKGSNFQLDQLQGRKSCHTGLGRSAGWIIPMGILRPYLSWTESLEPLQGAVAKFFSASCVPCIDRQAYPNLCQLCKGEGENQCACSSREPYFGYSGAFKCLQDGAGDVAFVKETTVFENLPEKADRDQYELLCLNNSRAPVDAFKECHLAQVPSHAVVARSVDGKEDLIWKLLSKAQEKFGKNKSRSFQLFGSPPGQRDLLFKDSALGFLRIPSKVDSALYLGSRYLTTLKNLRETAEEVKARYTRVVWCAVGPEEQKKCQQWSQQSGQNVTCATASTTDDCIVLVLKGEADALNLDGGYIYTAGKCGLVPVLAENRKSSKHSSLDCVLRPTEGYLAVAVVKKANEGLTWNSLKDKKSCHTAVDRTAGWNIPMGLIVNQTGSCAFDEFFSQSCAPGADPKSRLCALCAGDDQGLDKCVPNSKEKYYGYTGAFRCLAEDVGDVAFVKNDTVWENTNGESTADWAKNLNREDFRLLCLDGTRKPVTEAQSCHLAVAPNHAVVSRSDRAAHVKQVLLHQQALFGKNGKNCPDKFCLFKSETKNLLFNDNTECLAKLGGRPTYEEYLGTEYVTAIANLKKCSTSPLLEACAFLTR
- β-lactamase activity ([1]; LF 1 mg/ml alone): no β-lactamase activity
- β-lactamase activity ([1]; LF 1 mg/ml in combination with 8 μg/ml penicillin G, P<0.001): a significant reduction of β-lactamase activity
- β-lactamase activity [2]: moderately reduces β-lactamase activity
- BlaZ total: total number of copies of BlaZ gene mRNA/ml of culture ([3]; LF 1 mg/ml and/or penicillin G): 5.6 × 10^5 copies/ml of culture
- BlaZ: number of copies of BlaZ gene mRNA/50 ng of mRNA ([3]; LF 1 mg/ml and/or penicillin G): 1.4 × 10^4 copies/50 ng of mRNA
- reduction of the mRNA level in bacteria ([3]; LF, P<0.001): 35%
- RNA ([3]; adjusted for an OD540nm of 1.0, LF 1 mg/ml and/or penicillin G): 1.88 ± 0.68 :g/ml
- penicillin G-induced increase of BlaZ mRNA ([3]; simultaneous addition of 1 mg/ml of LF): completely prevented
- proteins of approximately 59, 42 and 27 kDa in protein profile (S. aureus SHY97-4320; 1 mg/ml LF in combination to 8 μg/ml penicillin G): absent
- proteins of approximately 59, 42 and 27 kDa in protein profile (S. aureus SHY97-4320; compound alone: 8 μg/ml penicillin G or 1 mg/ml LF, 4-h of growth): absent
- cell morphology (S. aureus ATCC 25923): no obvious effect

From US20030134779A1, “Method and composition for treatment and/or prevention of antibiotic-resistant microorganism infections” (priority 2002, published 2003)
